Source: article PMC5308896, “A conformational switch regulates the ubiquitin ligase HUWE1” (eLife, 2017)
Ends that are not written are not given here.

Tests used:
Experiment in all cases: fluorescence polarisation; apparent KD; constant 1 μM TAMRA-labelled p14ARF (45–64) peptide titrated with HUWE1 protein; 25°C, 20 mM HEPES pH 8.0, 150 mM NaCl, 10% glycerol, 1 mM EDTA, 5 mM DTT; three independent experiments
Details in all cases: both partners purified
[1] = biological target: T1, HUWE1 (3951–4374), untagged (human, UniProt Q7Z6Z7 3951-4374)
T1 construct: Monomer MW 49.752 kDa (AUC methods); source: LOBSTR RIL cells, purified (IMAC, TEV protease cleavage, second IMAC, gel filtration); not shown: His6, N-terminal, cleaved
T1 sequence (looked up): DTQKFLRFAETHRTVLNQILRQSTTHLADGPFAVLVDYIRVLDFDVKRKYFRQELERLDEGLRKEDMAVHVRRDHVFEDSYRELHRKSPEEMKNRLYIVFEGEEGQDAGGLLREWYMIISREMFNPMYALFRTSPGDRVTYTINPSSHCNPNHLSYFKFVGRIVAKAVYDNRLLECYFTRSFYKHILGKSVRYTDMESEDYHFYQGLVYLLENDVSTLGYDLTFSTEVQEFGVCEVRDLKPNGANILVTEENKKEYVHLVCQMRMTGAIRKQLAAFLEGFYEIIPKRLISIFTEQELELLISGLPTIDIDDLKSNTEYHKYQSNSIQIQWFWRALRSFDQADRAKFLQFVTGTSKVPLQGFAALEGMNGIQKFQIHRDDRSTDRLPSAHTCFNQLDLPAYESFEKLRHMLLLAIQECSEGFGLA

[2] = biological target: T2, HUWE1 (3993–4374), HECT domain (human, UniProt Q7Z6Z7 3993-4374)
T2 construct: also called isolated HECT domain; source: LOBSTR RIL cells, purified (IMAC, gel filtration)
T2 sequence (looked up): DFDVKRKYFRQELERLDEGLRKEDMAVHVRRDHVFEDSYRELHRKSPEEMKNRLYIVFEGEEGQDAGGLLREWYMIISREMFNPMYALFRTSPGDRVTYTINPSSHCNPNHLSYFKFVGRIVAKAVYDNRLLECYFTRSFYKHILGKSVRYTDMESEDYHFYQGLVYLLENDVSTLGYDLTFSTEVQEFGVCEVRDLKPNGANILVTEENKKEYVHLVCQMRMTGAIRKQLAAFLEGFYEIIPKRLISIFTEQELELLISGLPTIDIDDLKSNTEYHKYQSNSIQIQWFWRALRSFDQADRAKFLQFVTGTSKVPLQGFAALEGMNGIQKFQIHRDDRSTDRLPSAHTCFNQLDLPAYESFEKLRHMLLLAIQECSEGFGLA

HUWE1 (3896–4374) = biological target: T3, HUWE1 (3896–4374) (human, UniProt Q7Z6Z7 3896-4374)
T3 construct: source: LOBSTR RIL cells, purified (IMAC, gel filtration)
T3 sequence (looked up): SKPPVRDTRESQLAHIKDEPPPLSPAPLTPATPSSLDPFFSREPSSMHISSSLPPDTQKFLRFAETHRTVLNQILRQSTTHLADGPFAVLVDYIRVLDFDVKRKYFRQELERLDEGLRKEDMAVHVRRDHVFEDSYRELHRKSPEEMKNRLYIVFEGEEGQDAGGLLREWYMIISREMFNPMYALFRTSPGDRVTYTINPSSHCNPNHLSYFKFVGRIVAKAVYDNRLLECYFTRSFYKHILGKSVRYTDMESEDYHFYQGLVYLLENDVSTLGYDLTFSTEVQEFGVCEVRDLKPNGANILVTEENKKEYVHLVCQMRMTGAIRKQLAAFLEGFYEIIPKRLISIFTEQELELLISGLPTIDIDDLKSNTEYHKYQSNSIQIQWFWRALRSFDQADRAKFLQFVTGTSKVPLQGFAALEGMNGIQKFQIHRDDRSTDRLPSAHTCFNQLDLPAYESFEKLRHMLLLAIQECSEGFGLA

Kd [1]: 280 ± 40 µM
Kd [2]: 230 ± 40 µM
Kd (HUWE1 (3896–4374)): 340 ± 60 µM
B1: fluorophor-labeled p14ARF-derived peptide (residues 45–64), TAMRA-labelled (peptide)
peptide: LVLMLLRSQRLGQQPLPRRPK(TAMRA)
notes: p14ARF (alternative reading frame product of CDKN2A), human, residues 45–64; additional lysine residue at the C-terminus that carries the TAMRA label (told in words); also called p14ARF-peptide; p14ARF (45-64); source: synthetic peptide, bought: Elim Biopharm
